Reference: patent publication US20220363770A1 (Amgen, published 2022)
Positions count from the first letter of the chain named. Values belong to the binder of their own block, whether it stands above or below them.

Tests used:
human CGRP receptor = human CGRP receptor (human, UniProt Q16602 23-461; O60894 27-148); experiment: cell-based or functional assay
human PAC1 receptor = molecular target: T1, human PAC1 receptor (human, UniProt P41586 24-468); experiment: cell-based or functional assay
T1 sequence: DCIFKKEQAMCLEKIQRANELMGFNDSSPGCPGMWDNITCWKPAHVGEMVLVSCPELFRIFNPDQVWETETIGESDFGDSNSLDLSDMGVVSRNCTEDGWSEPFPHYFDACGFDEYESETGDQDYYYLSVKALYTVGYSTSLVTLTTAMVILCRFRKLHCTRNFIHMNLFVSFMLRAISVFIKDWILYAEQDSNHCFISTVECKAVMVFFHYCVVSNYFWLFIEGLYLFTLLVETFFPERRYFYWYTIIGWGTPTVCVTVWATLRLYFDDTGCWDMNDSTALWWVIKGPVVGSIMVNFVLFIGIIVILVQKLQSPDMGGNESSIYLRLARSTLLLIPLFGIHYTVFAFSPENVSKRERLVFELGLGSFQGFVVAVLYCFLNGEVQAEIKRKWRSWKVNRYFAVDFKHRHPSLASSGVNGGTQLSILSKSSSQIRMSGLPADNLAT

Chain of human CGRP receptor (Q16602 23-461 limits assumed, chain 1 of 2): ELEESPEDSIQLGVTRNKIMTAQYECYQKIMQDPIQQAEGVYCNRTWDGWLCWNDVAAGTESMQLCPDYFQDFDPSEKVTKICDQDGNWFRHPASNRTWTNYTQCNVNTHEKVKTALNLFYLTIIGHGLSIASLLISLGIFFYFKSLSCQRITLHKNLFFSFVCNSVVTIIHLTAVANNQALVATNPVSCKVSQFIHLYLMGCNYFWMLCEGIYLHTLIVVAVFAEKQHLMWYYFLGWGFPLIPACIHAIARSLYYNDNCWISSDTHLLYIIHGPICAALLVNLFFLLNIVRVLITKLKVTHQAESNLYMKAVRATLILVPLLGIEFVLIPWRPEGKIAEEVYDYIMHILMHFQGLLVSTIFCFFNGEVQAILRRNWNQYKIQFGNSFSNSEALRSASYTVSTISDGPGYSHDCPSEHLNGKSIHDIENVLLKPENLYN
Chain of human CGRP receptor (O60894 27-148 limits assumed, chain 2 of 2): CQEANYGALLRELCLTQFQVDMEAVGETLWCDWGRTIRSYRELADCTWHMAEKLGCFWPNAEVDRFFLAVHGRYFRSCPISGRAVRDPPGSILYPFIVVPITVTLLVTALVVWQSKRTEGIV

B2: iPS:454911 (bispecific antibody, human IgG1, kappa, lambda, N297G)
light 1: QSVLTQPPSVSAAPGQKVTISCSGSSSNIGNNYVSWYQQLPGTAPKLLIYDNNKRPSGIPDRFSGSKSGTSTTLGITGLQTGDEADYYCGTWDSRLSAVVFGGGTKLTVLGQPKAAPSVTLFPPSSEELQANKATLVCLISDFYPGAVTVAWKADSSPVKAGVETTTPSKQSNNKYAAKSYLSLTPEQWKSHRSYSCQVTHEGSTVEKTVAPTECS
heavy 1: QVQLVESGGGVVQPGRSLRLSCAASGFTFSSFGMHWVRQAPGKGLEWVAVISFDGSIKYSVDSVKGRFTISRDNSKNTLFLQMNSLRAEDTAVYYCARDRLNYYRSFGYYGYHYYGMAVWGQGTTVTVSSASTKGPSVFPLAPSSKSTSGGTAALGCLVKDYFPEPVTVSWNSGALTSGVHTFPAVLQSSGLYSLESVVTVPSSSLGTQTYICNVNHKPSNTKVDKKVEPKSCDKTHTCPPCPAPELLGGPSVFLFPPKPKDTLMISRTPEVTCVVVDVSHEDPEVKFNWYVDGVEVHNAKTKPCEEQYGSTYRCVSVLTVLHQDWLNGKEYKCKVSNKALPAPIEKTISKAKGQPREPQVYTLPPSRKKMTKNQVSLTCLVKGFYPSDIAVEWESNGQPENNYKTTPPVLKSDGSFFLYSKLTVDKSRWQQGNVFSCSVMHEALHNHYTQKSLSLSPGK
light 2: EIVLTQSPATLSLSPGERATLSCRASKSVGWSLHWYQQKPGQAPRLLIKYASQSLSGIPARFSGSGSGTDFTLTISSLEPEDFAVYYCHQSSRLPFTFGPGTKVDIKRTVAAPSVFIFPPSDEQLKSGTASVVCLLNNFYPREAKVQWKVDNALQSGNSQESVTEQDSKDSTYSLESTLTLSKADYEKHKVYACEVTHQGLSSPVTKSFNRGEC
heavy 2: not shown
- Fold-improvement over 4E4 Ab (human CGRP receptor): 0.3 fold
- IC50 (human CGRP receptor): 1.98 nM
- Fold-improvement over 29G4v22 Ab (human PAC1 receptor): 9.1 fold
- IC50 (human PAC1 receptor): 0.81 nM

B3: iPS:454587 (bispecific antibody, human IgG1, kappa, lambda, N297G)
light 1: B2 light 1 with S26Y, N31R, N32Y, Y33S, T72A
heavy 1: B2 heavy 1 with R105E, F107S, G111H, H113K, K370E
light 2: B2 light 2
heavy 2: not shown
- Fold-improvement over 4E4 Ab (human CGRP receptor): 0.9 fold
- IC50 (human CGRP receptor): 0.58 nM
- Fold-improvement over 29G4v22 Ab (human PAC1 receptor): 1.3 fold
- IC50 (human PAC1 receptor): 4.36 nM

B5: iPS:454919 (bispecific antibody, human IgG1, kappa, lambda, N297G)
light 1: B2 light 1
heavy 1: B2 heavy 1
light 2: B2 light 2 with W31Y
heavy 2: not shown
- Fold-improvement over 4E4 Ab (human CGRP receptor): 0.4 fold
- IC50 (human CGRP receptor): 1.4 nM
- Fold-improvement over 29G4v22 Ab (human PAC1 receptor): 9.8 fold
- IC50 (human PAC1 receptor): 0.7 nM

B7: iPS:454565 (5606) (bispecific antibody, human IgG1, kappa, lambda, N297G)
light 1: B2 light 1 with S26Y, N31R, N32Y, Y33S, T72A
heavy 1: B2 heavy 1 with R105E, F107S, G111H, H113K, K370E
light 2: B2 light 2 with W31R
heavy 2: not shown
- Fold-improvement over 4E4 Ab (human CGRP receptor): 0.8 fold
- IC50 (human CGRP receptor): 0.66 nM
- Fold-improvement over 29G4v22 Ab (human PAC1 receptor): 5.9 fold
- IC50 (human PAC1 receptor): 0.69 nM

B8: iPS:571015 (5603) (bispecific antibody, human IgG1, kappa, lambda, N297G)
light 1: B2 light 1 with S26Y, N31R, N32Y, Y33S, T72A
heavy 1: B2 heavy 1 with R105E, F107S, G111H, H113K, K369E
light 2: B2 light 2 with W31R
heavy 2: not shown
- Fold-improvement over 4E4 Ab (human CGRP receptor): 1.2 fold
- IC50 (human CGRP receptor): 0.47 nM
- Fold-improvement over 29G4v22 Ab (human PAC1 receptor): 5.5 fold
- IC50 (human PAC1 receptor): 0.74 nM

B12: iPS:454583 (bispecific antibody, human IgG1, kappa, lambda, N297G)
light 1: B2 light 1 with S26Y, N31R, N32Y, Y33S, T72A
heavy 1: B2 heavy 1 with R105E, F107S, G111H, H113K, K370E
light 2: B2 light 2
heavy 2: not shown
- Fold-improvement over 4E4 Ab (human CGRP receptor): 1.1 fold
- IC50 (human CGRP receptor): 0.51 nM
- Fold-improvement over 29G4v22 Ab (human PAC1 receptor): 2.8 fold
- IC50 (human PAC1 receptor): 2.48 nM

B14: iPS:454557 (5601) (bispecific antibody, human IgG1, kappa, lambda, N297G)
light 1: B2 light 1 with S26Y, N31R, N32Y, Y33S, T72A
heavy 1: B2 heavy 1 with R105E, F107S, G111H, H113K, K370E
light 2: B2 light 2 with W31R
heavy 2: not shown
- Fold-improvement over 4E4 Ab (human CGRP receptor): 1.5 fold
- IC50 (human CGRP receptor): 0.39 nM
- Fold-improvement over 29G4v22 Ab (human PAC1 receptor): 6.7 fold
- IC50 (human PAC1 receptor): 0.61 nM

B16: iPS:454917 (bispecific antibody, human IgG1, kappa, lambda, N297G)
light 1: B2 light 1
heavy 1: B2 heavy 1
light 2: B2 light 2
heavy 2: not shown
- Fold-improvement over 4E4 Ab (human CGRP receptor): 0.4 fold
- IC50 (human CGRP receptor): 1.34 nM
- Fold-improvement over 29G4v22 Ab (human PAC1 receptor): 11.4 fold
- IC50 (human PAC1 receptor): 0.61 nM

B17: iPS:454569 (bispecific antibody, human IgG1, kappa, lambda, N297G)
light 1: B2 light 1 with S26Y, N31R, N32Y, Y33S, T72A
heavy 1: B2 heavy 1 with R105E, F107S, G111H, H113K, K370E
light 2: B2 light 2 with W31R
heavy 2: not shown
- Fold-improvement over 4E4 Ab (human CGRP receptor): 0.41 fold
- IC50 (human CGRP receptor): 1.42 nM
- Fold-improvement over 29G4v22 Ab (human PAC1 receptor): 3.8 fold
- IC50 (human PAC1 receptor): 1.27 nM

B18: iPS:454915 (bispecific antibody, human IgG1, kappa, lambda, N297G)
light 1: B2 light 1
heavy 1: B2 heavy 1
light 2: B2 light 2
heavy 2: not shown
- Fold-improvement over 4E4 Ab (human CGRP receptor): 0.4 fold
- IC50 (human CGRP receptor): 1.25 nM
- Fold-improvement over 29G4v22 Ab (human PAC1 receptor): 10.5 fold
- IC50 (human PAC1 receptor): 0.66 nM

More lines, now with the values ahead:

- Fold-improvement over 4E4 Ab (human CGRP receptor): 0.5 fold
- IC50 (human CGRP receptor): 1.13 nM
- Fold-improvement over 29G4v22 Ab (human PAC1 receptor): 9.2 fold
- IC50 (human PAC1 receptor): 0.79 nM
B1: iPS:454905 (bispecific antibody, human IgG1, kappa, lambda, N297G)
light 1: B2 light 1
heavy 1: B2 heavy 1
light 2: B2 light 2
heavy 2: not shown

- Fold-improvement over 4E4 Ab (human CGRP receptor): 1.3 fold
- IC50 (human CGRP receptor): 0.43 nM
- Fold-improvement over 29G4v22 Ab (human PAC1 receptor): 7.2 fold
- IC50 (human PAC1 receptor): 0.57 nM
B4: iPS:571009 (5602) (bispecific antibody, human IgG1, kappa, lambda, N297G)
light 1: B2 light 1 with S26Y, N31R, N32Y, Y33S, T72A
heavy 1: B2 heavy 1 with R105E, F107S, G111H, H113K, K370E
light 2: B2 light 2 with W31R
heavy 2: not shown

- Fold-improvement over 4E4 Ab (human CGRP receptor): 0.4 fold
- IC50 (human CGRP receptor): 1.63 nM
- Fold-improvement over 29G4v22 Ab (human PAC1 receptor): 5.4 fold
- IC50 (human PAC1 receptor): 1.37 nM
B6: iPS:454907 (bispecific antibody, human IgG1, kappa, lambda, N297G)
light 1: B2 light 1
heavy 1: B2 heavy 1
light 2: B2 light 2
heavy 2: not shown

- Fold-improvement over 4E4 Ab (human CGRP receptor): 1.1 fold
- IC50 (human CGRP receptor): 0.51 nM
- Fold-improvement over 29G4v22 Ab (human PAC1 receptor): 2.1 fold
- IC50 (human PAC1 receptor): 2.65 nM
B9: iPS:454585 (bispecific antibody, human IgG1, kappa, lambda, N297G)
light 1: B2 light 1 with S26Y, N31R, N32Y, Y33S, T72A
heavy 1: B2 heavy 1 with R105E, F107S, G111H, H113K, K370E
light 2: B2 light 2
heavy 2: not shown

- Fold-improvement over 4E4 Ab (human CGRP receptor): 0.4 fold
- IC50 (human CGRP receptor): 1.49 nM
- Fold-improvement over 29G4v22 Ab (human PAC1 receptor): 9.5 fold
- IC50 (human PAC1 receptor): 0.77 nM
B10: iPS:454909 (bispecific antibody, human IgG1, kappa, lambda, N297G)
light 1: B2 light 1
heavy 1: B2 heavy 1
light 2: B2 light 2
heavy 2: not shown

- Fold-improvement over 4E4 Ab (human CGRP receptor): 1 fold
- IC50 (human CGRP receptor): 0.53 nM
- Fold-improvement over 29G4v22 Ab (human PAC1 receptor): 6.9 fold
- IC50 (human PAC1 receptor): 0.97 nM
B11: iPS:454729 (bispecific antibody, human IgG1, kappa, lambda, N297G)
light 1: B2 light 1 with S26Y, N31R, N32Y, Y33S, T72A
heavy 1: B2 heavy 1 with R105E, F107S, G111H, H113K
light 2: B2 light 2 with W31Q
heavy 2: not shown

- Fold-improvement over 4E4 Ab (human CGRP receptor): 0.3 fold
- IC50 (human CGRP receptor): 2.11 nM
- Fold-improvement over 29G4v22 Ab (human PAC1 receptor): 5.2 fold
- IC50 (human PAC1 receptor): 1.33 nM
B13: iPS:454913 (bispecific antibody, human IgG1, kappa, lambda, N297G)
light 1: B2 light 1
heavy 1: B2 heavy 1
light 2: B2 light 2
heavy 2: not shown

- Fold-improvement over 4E4 Ab (human CGRP receptor): 1 fold
- IC50 (human CGRP receptor): 0.52 nM
- Fold-improvement over 29G4v22 Ab (human PAC1 receptor): 1.8 fold
- IC50 (human PAC1 receptor): 3.76 nM
B15: iPS:454731 (bispecific antibody, human IgG1, kappa, lambda, N297G)
light 1: B2 light 1 with S26Y, N31R, N32Y, Y33S, T72A
heavy 1: B2 heavy 1 with R105E, F107S, G111H, H113K
light 2: B2 light 2 with S28A, G30W, W31H, S32N, R93M
heavy 2: not shown
